Results reported in US20250043302A1, “MUTATED HYDROXYPHENYLPYRUVATE DIOXYGENASE POLYPEPTIDE, AND CODING GENE AND USE THEREOF” (BEIJING DABEINONG BIOTECHNOLOGY CO., LTD., priority 2021, published 2025).

How the values were obtained:
Format in all cases: in vivo
[1] = system: Arabidopsis thaliana T1 plants; assay: Mesotrione tolerance of transgenic Arabidopsis thaliana T1 plants (spray, bleached leaf area grade, damage score); set-up: Scores: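 damage score 0-100 computed as Σ(N×S)/(T×M)×100 over grades 0-3 with higher meaning more damage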; conditions: Arabidopsis thaliana T1 plants; for Grade 0 (classification and statistics of the grade of pesticide damage; number of plants) / Grade 1 (classification and statistics of the grade of pesticide damage; number of plants) / Grade 2 (classification and statistics of the grade of pesticide damage; number of plants) / Grade 3 (classification and statistics of the grade of pesticide damage; number of plants): 16 plants
In short: (§1)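 Read-out: per-plant damage grade 0–3 from proportion of bleached leaf area at 7 DAT (1 <50%, 2 >50%, 3 100%). Plants were T1 transformants, glufosinate-selected, plus wild-type CK, sprayed 18 days post-sowing. Rates: topramezone 25–200, isoxaflutole 35–280, mesotrione 52.5–420 g ai/ha.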

[2] = system: Arabidopsis thaliana T1 plants; assay: Isoxaflutole tolerance of transgenic Arabidopsis thaliana T1 plants (spray, bleached leaf area grade, damage score); set-up: Scores (pesticide damage): scale not given here; conditions: spray, Arabidopsis thaliana T1 plants; for Classification and statistics of the grade of pesticide damage: Grade 0 (number of plants) / Classification and statistics of the grade of pesticide damage: Grade 1 (number of plants) / Classification and statistics of the grade of pesticide damage: Grade 2 (number of plants) / Classification and statistics of the grade of pesticide damage: Grade 3 (number of plants): 16 plants
In short: as §1

[3] = system: Arabidopsis thaliana T1 plants; assay: Topramezone tolerance of transgenic Arabidopsis thaliana T1 plants (spray, bleached leaf area grade, damage score); conditions: 7 DAT, Table 4; for Classification and statistics of the grade of pesticide damage: Grade 0 / Classification and statistics of the grade of pesticide damage: Grade 1 / Classification and statistics of the grade of pesticide damage: Grade 2 / Classification and statistics of the grade of pesticide damage: Grade 3: number of plants; for Scores: pesticide damage score 0-100
In short: as §1

[4] = isoxaflutole 35 g ai/ha (0.5x field concentration)
[5] = isoxaflutole 70 g ai/ha (1x field concentration)

B1: GmHPPD-02: nucleotide sequence encoding wild-type Glycine max HPPD; vector DBN11746 (nucleic acid)
DNA: ATGCCAATGTACACACCATCGCTCTCCGCCCCTTCTTCCAACCATATTCAGCCATCCGTGACTCTGCCTCTCTACATCACAACCACCAAGTTGAACCTGAAGCAGCAGCACCATACGACTCCTATGCCTATACCCATGTGCAATGAGATCCAAGCACAGGCTCAGGCACAAGCTCAACCCGGATTCAAACTCGTGGGATTCAAGAACTTCGTCCGTACCAATCCAAAATCTGACCGCTTCCAGGTGAACAGATTCCACCACATAGAGTTTTGGTGTACTGATGCAACGAATGCTTCGAGGAGGTTTTCATGGGGCTTAGGCATGCCGATTGTAGCAAAGTCAGACCTTTCTACAGGGAACCAAATTCATGCAAGCTATCTGCTCCGCTCAGGTGATTTGTCTTTCTTGTTCTCAGCTCCATATTCTCCATCATTATCTGCTGGGTCATCAGCAGCATCTAGTGCGTCGATCCCTAGCTTTGATGCCGCCACCTGCCTCGCCTTCGCCGCCAAACATGGATTTGGTGTTCGCGCCATTGCTCTTGAGGTTGCCGATGCCGAGGCTGCTTTTAGCGCCTCCGTCGCCAAGGGAGCTGAGCCTGCGTCACCTCCTGTTCTTGTTGATGATCGAACTGGTTTTGCTGAAGTGCGTCTTTACGGCGACGTGGTGCTCAGATATGTTAGTTACAAGGATGCTGCTCCTCAAGCGCCGCACGCTGATCCTTCAAGATGGTTTCTTCCGGGGTTTGAGGCCGCTGCTAGTTCATCTTCCTTCCCGGAGTTGGATTACGGCATACGGCGGCTTGACCATGCTGTCGGCAATGTTCCTGAGCTTGCTCCGGCGGTACGGTACTTGAAAGGTTTCTCCGGGTTCCATGAATTTGCAGAGTTCACGGCGGAAGATGTTGGAACAAGTGAAAGCGGATTGAATTCTGTTGTTTTGGCCAACAACAGTGAAACTGTTCTGCTCCCCCTCAATGAACCAGTTTATGGCACAAAGCGCAAGAGCCAGATTGAAACATATCTCGAGCACAATGAAGGCGCCGGCGTCCAGCATCTTGCTTTGGTGACTCATGATATCTTCACAACACTTAGGGAGATGAGGAAGAGGAGTTTCCTCGGCGGGTTTGAATTCATGCCCAGTCCCCCGCCGACCTACTATGCAAATCTGCACAACAGGGCTGCAGATGTGCTGACTGTAGACCAGATCAAGCAATGTGAAGAACTTGGAATTTTAGTGGATAGAGACGACCAAGGTACACTACTTCAAATATTCACCAAACCAGTCGGTGACAGACCAACAATTTTCATCGAGATTATACAAAGAATTGGATGCATGGTCGAGGATGAAGAAGGGAAGGTGTACCAGAAGGGAGCATGTGGTGGTTTTGGGAAAGGAAATTTTTCTGAGCTGTTTAAATCCATCGAGGAATATGAGAAAACCTTAGAAGCTAAAAGAACTGCATGA
modifications: GmHPPD-02 Nucleotide Sequence
notes: vector DBN11746
[1]; mesotrione 52.5 g ai/ha
  Resistance evaluation: Non-resistant
  Scores: 100
  Grade 0 (classification and statistics of the grade of pesticide damage; number of plants): 0
  Grade 1 (classification and statistics of the grade of pesticide damage; number of plants): 0
  Grade 2 (classification and statistics of the grade of pesticide damage; number of plants): 0
  Grade 3 (classification and statistics of the grade of pesticide damage; number of plants): 16
[1]; mesotrione 105 g ai/ha
  Resistance evaluation: Non-resistant
  Scores: 100
  Grade 0 (classification and statistics of the grade of pesticide damage; number of plants): 0
  Grade 1 (classification and statistics of the grade of pesticide damage; number of plants): 0
  Grade 2 (classification and statistics of the grade of pesticide damage; number of plants): 0
  Grade 3 (classification and statistics of the grade of pesticide damage; number of plants): 16
[2]; [4]
  Resistance evaluation: Non-resistant
  Scores (pesticide damage): 100
  Classification and statistics of the grade of pesticide damage: Grade 0 (number of plants): 0
  Classification and statistics of the grade of pesticide damage: Grade 1 (number of plants): 0
  Classification and statistics of the grade of pesticide damage: Grade 2 (number of plants): 0
  Classification and statistics of the grade of pesticide damage: Grade 3 (number of plants): 16
[2]; [5]
  Resistance evaluation: Non-resistant
  Scores (pesticide damage): 100
  Classification and statistics of the grade of pesticide damage: Grade 0 (number of plants): 0
  Classification and statistics of the grade of pesticide damage: Grade 1 (number of plants): 0
  Classification and statistics of the grade of pesticide damage: Grade 2 (number of plants): 0
  Classification and statistics of the grade of pesticide damage: Grade 3 (number of plants): 16
[3]; topramezone 25 g ai/ha (1×)
  Classification and statistics of the grade of pesticide damage: Grade 0: 0
  Classification and statistics of the grade of pesticide damage: Grade 1: 0
  Classification and statistics of the grade of pesticide damage: Grade 2: 0
  Classification and statistics of the grade of pesticide damage: Grade 3: 16
  Scores: 100
  Resistance evaluation: non-resistant (non-resistant plants (scores 68-100))
[3]; topramezone 100 g ai/ha (4×)
  Classification and statistics of the grade of pesticide damage: Grade 0: 0
  Classification and statistics of the grade of pesticide damage: Grade 1: 0
  Classification and statistics of the grade of pesticide damage: Grade 2: 0
  Classification and statistics of the grade of pesticide damage: Grade 3: 16
  Scores: 100
  Resistance evaluation: non-resistant (non-resistant plants (scores 68-100))
